Data as given in US10323078B2, “Isolated peptides and fragments thereof from fibrinogen for use as drugs, particularly in skin inflammatory diseases” (Universite Paris Descartes, priority 2015, dated 2019).

Columns and labels:
Type in all cases: cell-based, human
Conditions in all cases: 0.87 to 7 μM
NHDK cells = test: IL-8 production by P. acnes-stimulated NHDK (ELISA)
Protocol: (§1) For experiences of stimulation with P. acnes, cells were incubated with the P. acnes suspension adjusted at the appropriate concentration, pre-treated for 1 h at 37° C. or not with fibrinogen recombinant peptides Fg1 and Fg2 at the concentrations 0.87, 1.75, 3.5 or 7 μM for the desired period of time at 37° C. in 5% CO2.
(§2) Human IL-1ß, IL-8, IL-12, hBD-2, and TNF-α protein concentration was measured in the supernatants of stimulated cells using various ELISA Set kits (Ready-Set-Go kit from eBioscience for acne experiments, and for psoriasis experiments the Duo set IL-8 kit from R&D Systems and the BD-2 Human Development (hBD-2) from Peprotech) according to the manufacturer's instructions. We used serial dilutions of recombinant human IL-1ß, IL-8, IL-12 and TNF-α for standard curve. The optical density was determined at 450 nm at a wavelength correction of 540 nm.
(§3) To assess the efficacy of Fg1 recombinant peptide, the production of O2^∘− and H2O2 by HaCaT cells NHDK, THP-1, MRC5 and HDF stimulated by pretreated P. acnes strains 6919, RON and PIE was measured. The amount of ROS produced was compared to that produced by the stimulated cells with untreated bacteria. Production baseline was obtained by measuring ROS on unstimulated cells. The production of IL-1ß, IL-8, IL-12 and TNF-α was also measured in all conditions cited above. The measurement of the production of ROS is performed by spectrofluorimetry in the presence of specific fluorochromes directly on the monolayer cell. Measurement of cytokine production was performed in parallel on the cell culture supernatant.
(§4) Two sets of experiments were implemented: 1) The cells were stimulated (18 h at 37° C.) by P. acnes strains previously pretreated with Fg1 and Fg2 peptides at the final concentrations ranging from 0.87 to 7 μM for 1 h at 37° C.; and 2) The cells were pretreated first with Fg1 and Fg2 peptides at the final concentrations ranging from 0.87 to 7 μM for 24 h at 37° C. and stimulated (18 h at 37° C.) by P. acnes strains.

ThP1 cells = test: H2O2 production by P. acnes-stimulated ThP1
Protocol: as §1
All cells lines (5·10^4 to 10^5 cells/well) were seeded in 96-well plates (Corning Costar, Brumath, France) and treated as previously described. After stimulation, cells were washed three times in PBS and incubated with 100 μl per wells of 5 μM DHE (for determination of O2^●−) or 5 μM H2-DCFDA (for determination of H2O2) for 30 min as described previously and fluorescence intensity was recorded every hour over a period of 5 h. Fluorescence excitation/emission maxima were for DHE: 480/610 nm and for H2-DCFDA: 507/525 nm. At the end of the experiment, the number of adherent cells was evaluated by the crystal violet assay as described below. O2^●−, and H2O2 were assayed by spectrofluorimetry on a Fusion spectrofluorimeter (PackardBell, Paris, France). Levels of ROS were calculated in each sample as follows: reactive oxygen species rate (arbitrary units/min/10^6 cells)=(fluorescence intensity [arbitrary units] at T5h—fluorescence intensity [arbitrary units] at To/300 minutes/number of adherent cells as measured by the crystal violet assay, and were expressed as arbitrary unit (A.U.).
as §3, §4
To assess the efficacy of the small Fg1-related peptide, the production of H2O2 by several cell lines (HaCaT, NHDK, THP-1, MRC5 and HDF) stimulated by three P. acnes strains 6919, RON and PIE was measured, in presence or not with the small peptides. The amount of H2O2 produced is compared to that produced by the stimulated cells with untreated bacteria. Production baseline is obtained by measuring H2O2 on unstimulated cells. The measurement of the production of H2O2 is performed by spectrofluorimetry in the presence of specific fluorochromes directly on the monolayer cell.
Two sets of experiments have been implemented: • I) The cells are stimulated (18 h at 37° C.) by P. acnes strains previously pretreated with Fg1.1, Fg1.2, Fg1.3, Fg1.4, and Fg1.5 small peptides at the final concentrations ranging from 2.5 to 20 μM for 1 h at 37° C.; • II) The cells are pretreated first with the five small peptides at the final concentrations ranging from 2.5 to 20 μM for 24 h at 37° C. and stimulated (18 h at 37° C.) by P. acnes strains.

HaCaT cells = test: IL-8 production by P. acnes-stimulated HaCaT (ELISA)
Protocol: as §1, §2, §3
Two sets of experiments were implemented: 1) The cells were stimulated (18 h at 37° C.) by P. acnes strains previously pretreated with Fg1 and Fg2 peptides at the final concentrations ranging from 0.87 to 7 μM for 1 h at 37° C.; and 2) The cells were pretreated first with Fg1 and Fg2 peptides at the final concentrations ranging from 0.87 to 7 μM for 24 h at 37° C. and stimulated (18 h at 37° C.) by P. acnes strains. […]
Immortalized keratinocytes HaCaT cell were seeded in 96-well plates at 10^5 cells/well (Corning Costar, Brumath, France) and stimulated with P. acnes 6919 strain (O.D.620 nm=0.3) pretreated 1 h at 37° C. with the Fg1 and Fg1.1.1 peptides at the concentrations of 2.5, 5 and 10 μM for 18 h at 37° C. under 5% CO2. Then, culture supernatant was removed and the IL-8 concentration was measured by ELISA assay (eBioscience).

[1] = P. acnes 6919, set I, bacteria first pretreated
[2] = P. acnes 6919, set II, cells first pretreated
[3] = P. acnes PIE, set I, bacteria first pretreated
[4] = P. acnes PIE, set II, cells first pretreated
[5] = P. acnes RON, set I, bacteria first pretreated
[6] = P. acnes RON, set II, cells first pretreated

B1: MKRMVSWSFHKLKTMKHLLLLLLCVFLVKSQGVNDNEEGFFSARGHRPLDKKREEAPSLRPAPPPISGGGYRARPAKAAATQKKVERKAPDAGGCLHADPDLGVLC (protein)
chain: MKRMVSWSFHKLKTMKHLLLLLLCVFLVKSQGVNDNEEGFFSARGHRPLDKKREEAPSLRPAPPPISGGGRARPAKAAATQKKVERKAPDAGGCLHADPDLGVLCMKRMVSWSFHKLKTMKHLLLLLLCVFLVKSQGVNDNEEGFFSARGHRPLDKKREEAPSLRPAPPPISGGGYRARPAKAAATQKKVERKAPDAGGCLHADPDLGVLC
modifications: GST fusion; fragment Fg1
notes: fragment of Bß chain of human fibrinogen having 106 amino acids; recombinant GST-fused peptide expressed in E. coli
pos: Inhibition of Interleukine 8 (IL-8) production (NHDK cells; [1]) | Inhibition of Interleukine 8 (IL-8) production (NHDK cells; [2]) | Inhibition of Interleukine 8 (IL-8) production (NHDK cells; [3]) | Inhibition of Interleukine 8 (IL-8) production (NHDK cells; [4]) | Inhibition of Interleukine 8 (IL-8) production (NHDK cells; [5]) | Inhibition of Interleukine 8 (IL-8) production (NHDK cells; [6]) | Inhibition of Hydrogen peroxide (H2O2) production (ThP1 cells; [1]) | Inhibition of Hydrogen peroxide (H2O2) production (ThP1 cells; [2]) | Inhibition of Hydrogen peroxide (H2O2) production (ThP1 cells; [3]) | Inhibition of Hydrogen peroxide (H2O2) production (ThP1 cells; [4]) | Inhibition of Hydrogen peroxide (H2O2) production (ThP1 cells; [5]) | Inhibition of Hydrogen peroxide (H2O2) production (ThP1 cells; [6]) | Inhibition of Interleukine 8 (IL-8) production (HaCaT cells; [1]) | Inhibition of Interleukine 8 (IL-8) production (HaCaT cells; [2]) | Inhibition of Interleukine 8 (IL-8) production (HaCaT cells; [3]) | Inhibition of Interleukine 8 (IL-8) production (HaCaT cells; [4]) | Inhibition of Interleukine 8 (IL-8) production (HaCaT cells; [5]) | Inhibition of Interleukine 8 (IL-8) production (HaCaT cells; [6])
